In publication PMC4694753 (Molecular Biology of the Cell, 2016):

Biological target: GFP-VASP (UniProt P50552 1-380)
Assay: co-IP

GFP-VASP, sequence (P50552 whole entry): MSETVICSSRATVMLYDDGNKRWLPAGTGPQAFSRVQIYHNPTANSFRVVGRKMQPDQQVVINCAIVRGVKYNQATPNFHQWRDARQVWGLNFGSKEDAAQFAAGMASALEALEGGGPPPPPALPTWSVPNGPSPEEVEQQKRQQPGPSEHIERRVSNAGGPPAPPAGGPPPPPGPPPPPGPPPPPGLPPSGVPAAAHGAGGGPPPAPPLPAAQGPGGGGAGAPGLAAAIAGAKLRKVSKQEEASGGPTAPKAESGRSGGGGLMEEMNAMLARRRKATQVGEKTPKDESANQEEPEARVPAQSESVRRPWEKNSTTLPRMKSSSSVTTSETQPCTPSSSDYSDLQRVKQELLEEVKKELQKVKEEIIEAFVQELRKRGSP

B1: endogenous GRASP65 (natural protein)
chain: not shown
amount coimmunoprecipitated, % relative to GFP-Mena: 8.2 ± 3.3%
